Experiments:
[1] = biological target: T1, PfRH5 protein variant version 4.0 (3D7 sequence, N38Q and N214Q) (Plasmodium falciparum (3D7 clone), UniProt Q8IFM5 26-526, N38Q | N214Q); assay: SPR; basigin immobilised on a CM5 chip by amine coupling (850 RU); PfRH5 variant injected at 8-0.0625 uM, 120 s at 30 uL/min, 300 s dissociation; 20 C; 10 mM HEPES pH 7.4, 150 mM NaCl, 3 mM EDTA, 0.005% Tween-20, 2 mg/mL dextran, 1 mg/mL salmon sperm DNA; blank surface subtracted; global 1:1 interaction model; conditions: both partners purified
T1 construct: only two of the putative N-linked glycosylation sites mutated (N38Q and N214Q); The construct has an N-terminal BiP insect signal peptide (…); No cleavage site for the His6 tag is described; No evidence of glycosylation was found for this variant; also called PfRH5 v4.0; v4.0; source: without the Con A step
T1 sequence: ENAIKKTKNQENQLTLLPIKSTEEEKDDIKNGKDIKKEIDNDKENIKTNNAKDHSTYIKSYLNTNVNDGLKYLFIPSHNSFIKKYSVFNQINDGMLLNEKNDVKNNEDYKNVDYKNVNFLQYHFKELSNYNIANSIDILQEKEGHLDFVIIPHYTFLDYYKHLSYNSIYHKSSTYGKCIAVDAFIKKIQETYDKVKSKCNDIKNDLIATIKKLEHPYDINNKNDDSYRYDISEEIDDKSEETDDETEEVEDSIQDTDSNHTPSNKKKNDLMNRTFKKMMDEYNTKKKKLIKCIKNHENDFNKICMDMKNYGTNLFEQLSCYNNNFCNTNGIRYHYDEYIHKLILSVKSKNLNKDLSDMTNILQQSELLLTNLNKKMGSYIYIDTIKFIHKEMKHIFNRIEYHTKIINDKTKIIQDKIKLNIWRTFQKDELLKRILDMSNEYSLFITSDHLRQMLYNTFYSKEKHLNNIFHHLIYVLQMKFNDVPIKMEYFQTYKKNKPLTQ

[2] = biological target: T2, PfRH5 protein variant version 5.0 (native 3D7 PfRH5 sequence) (Plasmodium falciparum (3D7 clone), UniProt Q8IFM5 26-526, N-linked glycan(s): one or both of the N-X-T sequons starting at N38 and N214 are glycosylated); assay: as above; conditions: both partners purified
T2 construct: The construct has an N-terminal BiP insect signal peptide (…); No cleavage site for the His6 tag is described; also called PfRH5 v5.0; v5.0; source: without the Con A step
T2 sequence: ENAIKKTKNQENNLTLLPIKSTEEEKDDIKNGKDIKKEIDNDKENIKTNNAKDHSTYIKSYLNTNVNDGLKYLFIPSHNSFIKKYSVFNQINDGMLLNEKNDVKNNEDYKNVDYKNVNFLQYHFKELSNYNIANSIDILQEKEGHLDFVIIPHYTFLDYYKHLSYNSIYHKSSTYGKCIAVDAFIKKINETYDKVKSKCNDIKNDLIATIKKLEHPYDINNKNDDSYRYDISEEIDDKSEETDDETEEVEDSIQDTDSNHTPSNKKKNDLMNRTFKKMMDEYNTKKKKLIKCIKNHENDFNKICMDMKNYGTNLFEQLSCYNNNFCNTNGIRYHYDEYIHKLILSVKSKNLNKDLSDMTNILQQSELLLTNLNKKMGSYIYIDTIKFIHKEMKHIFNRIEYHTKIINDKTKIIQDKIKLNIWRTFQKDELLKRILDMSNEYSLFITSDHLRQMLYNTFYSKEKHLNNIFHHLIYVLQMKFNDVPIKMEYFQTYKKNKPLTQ

B1: recombinant basigin, immunoglobulin domains 1 and 2 of the short isoform (22-205) (domain or fragment)
chain: GAAGTVFTTVEDLGSKILLTCSLNDSATEVTGHRWLKGGVVLKEDALPGQKTEFKVDSDDQWGEYSCVFLPEPMGTANIQLHGPPRVKAVKSSEHINEGETAMLVCKSESVPPVTDWAWYKITDSEDKALMNGSESRFFVSSSQGRSELHIENLNMEADPGQYRCNGTSSKGSDQAIITLRVRSH
notes: additional glycine left at the N-terminus from the TEV cleavage site; basigin (CD147), immunoglobulin domains 1 and 2 of the short isoform, residues 22-205; numbers count on: the short isoform; basigin is spoken of as the red blood cell receptor of the human malaria parasite; also called CD147; PfRH5 receptor; not shown: His6, N-terminal, cleaved
[1]
  binding result: binds
[2]
  binding result: binds

From paper PMC4960544, “Production of full-length soluble Plasmodium falciparum RH5 protein vaccine using a Drosophila melanogaster Schneider 2 stable cell line system” (Scientific Reports, 2016)
